Measured values as given in paper PMC3688580, “Crystal Structure, SAXS and Kinetic Mechanism of Hyperthermophilic ADP-Dependent Glucokinase from Thermococcus litoralis Reveal a Conserved Mechanism for Catalysis” (PLoS ONE, 2013).

Substrate: Nc1ncnc2c1ncn2[C@@H]1O[C@H](COP(=O)(O)OP(=O)(O)O)[C@@H](O)[C@H]1O
Experiment: purified protein
Assay type: biochemical, Thermococcus litoralis
Details: co-substrate D-glucose varied, Mg2+ (constant free Mg2+), 25 mM Hepes pH 7.8, 40 °C, ordered Bi-Bi, first substrate

B1: TlGK (ADP-dependent glucokinase from Thermococcus litoralis) (Thermococcus litoralis DSM 5473) (protein)
chain: MKESLKDRIRLWKRLYVNAFENALNAIPNVKGVLLAYNTNIDAIKYLDKDDLEKRVTEIGKEKVFEIIENPPEKISSIEELLGGILRSIKLGKAMEWFVESEEVRRYLREWGWDELRIGGQAGIMANLLGGVYRIPTIVHVPQNPKLQAELFVDGPIYVPVFEGNKLKLVHPKDAIAEEEELIHYIYEFPRGFQVFDVQAPRENRFIANADDYNARVYMRREFREGFEEITRNVELAIISGLQVLKEYYPDGTTYRDVLDRVESHLNILNRYNVKSHFEFAYTANRRVREALVELLPKFTSVGLNEVELASIMEIIGDEELAKEVLEGHIFSVIDAMNVLMDETGIERIHFHTYGYYLALTQYRGEEVRDALLFASLAAAAKAMKGNLERIEQIRDALSVPTNERAIVLEEELEKEFTEFENGLIDMVDRQLAFVPTKIVASPKSTVGIGDTISSSAFVSEFGMRKR
notes: recombinant, purified from LB culture as in Merino et al. (heat shock, ammonium sulfate, two chromatographic steps); two-domain enzyme
B1 was tested, and the Km was 8.6 µM.
